Source: patent US20090169473A1, “DIAGNOSTIC AGENT AND THERAPEUTIC AGENT FOR DISEASE ASSOCIATED WITH HEPATOCYTE GROWTH FACTOR RECEPTOR” (FUJIFILM RI PHARMA CO., LTD., priority 2005, published 2009)

Columns and labels:
[1] = Heparin-binding activity by heparin affinity column HPLC; settings: for NaCl concentration at elution from heparin column: TSK-gel Heparin-5PW, linear gradient 0 to 2M NaCl, pH 7.5, room temperature
Experimental: The heparin-binding activity of [^125I]HGF(11-83)-NH2 (73 aa) produced in Example 1 was determined with high-performance liquid chromatography employing a heparin column. hrHGF (PEPTIDE INSTITUTE, INC.), having a high heparin-binding activity, was used as a positive control.
<High-Performance Liquid Chromatography Conditions>
Column: TSK-gel Heparin-5PW (0.75×7.5 cm): product of TOHSO
solution A: 10 mM Na phosphate buffer (pH 7.5);
solution B: 10 mM Na phosphate buffer (pH 7.5)+2M NaCl;
0 min to 3 min: solution A 100%
3 min to 30 min: linear gradient solution B 0% to 100%
Temperature: room temperature (about 25° C.)

[2] = tested on: HGF receptor expression site (infarct border zone); assay: Dual nuclide autoradiography in myocardial ischemia model rats; format: in vivo, CD(SD) IGS rats; settings: 60 MBq femoral vein
Experimental: CD(SD) IGS rats (10-week-old) were anesthetized by intraperitoneally administering pentobarbital Na (35 mg/kg). After tracheostomy, an artificial respirator was attached to the rat. The left chest was opened, and an electrocardiogram was measured before coronary ligation. The coronary artery and its peripheral tissue (surrounding several millimeters) were ligated with suture, and ischemic state was determined on the basis of ST rise and recorded by an electrocardiogram. After recording, the chest was closed, and the trachea and the skin were sutured.
Three days after production of the myocardial ischemia model, a blood flow imaging agent ^99mTc-MIBI (Cardiolight Injection; DAIICHI RADIOISOTOPE LABS., LTD.) and [^125I]HGF(11-83)-NH2 (73 aa) were administered to each model rat. Blood flow was assessed through dual nuclide autoradiography and HE staining. ^99mTc-MIBI was administered at 60 MBq through a femoral vein. […] On the day of the experiment, the sample was affixed to an imaging plate for 30 minutes, and a ^99mTc-MIBI accumulation image was recorded by means of a bio-imaging analyzer BAS-1800 (FIG. 9). After 7-days attenuation period for ^99mTc for seven days, the sample was set again to the imaging plate for seven days, and a [^125I]HGF(11-83)-NH2 (73 aa) accumulation image was recorded by means of a bio-imaging analyzer BAS-1800 (FIG. 10).

[3] = tested on: HGF receptor expression site (infarct border zone); assay: Pinhole-SPECT imaging in myocardial ischemia model rats; format: in vivo, Wistar rats; settings: 90 MBq left femoral vein
Experimental: Wistar rats (8-week-old) were anesthetized with isoflurane (Forane (R), Abbott). After tracheostomy, an artificial respirator connected to an anesthetizer was attached to each rat. The left chest was opened, and an electrogardiogram was measured before coronary ligation. The coronary artery and its peripheral tissue were ligated with suture. During ligation, nylon filament was placed as a spacer between the coronary artery and the suture in order to weaken the ligation strength so as not to completely intercept the blood flow. Ischemic state was determined on the basis of ST rise and recorded by an electrocardiogram. After recording, the left chest was closed, and the trachea and the skin were sutured.
Under inhalation anesthesia with isoflurane, ^99mTc-MIBI (90 MBq) was injected into the left femoral vein of each myocardial ischemia model rat. Subsequently, [^123I]HGF(11-83)-NH2 (73 aa) (100 MBq) prepared in a manner similar to that of Example 2 was administered through the right femoral vein. Thirty minutes after the administration, pinhole-SPECT imaging was conducted using a gamma camera (PRISM 2000, Shimadzu Corporation) (Imaging conditions: pinhole collimator, matrix sizes: 256×256, Mag 1.0, energy windows ^99mTc: 140 keV 10% and ^123I: 159 keV 10%, 3° 60 sec/step). […]

[4] = target: T1, HGF receptor of HuCCT1 cells (Homo sapiens, UniProt P08581); assay: Binding assay on HuCCT-1 cells with inhibition by hrHGF
T1 construct: c-Met-expressing HuCCT-1 cells (human-origin cholangiocarcinoma cells); endogenous in cells; host or cells: HuCCT-1 (human cholangiocarcinoma cells)
T1 sequence (P08581 25-307 limits assumed): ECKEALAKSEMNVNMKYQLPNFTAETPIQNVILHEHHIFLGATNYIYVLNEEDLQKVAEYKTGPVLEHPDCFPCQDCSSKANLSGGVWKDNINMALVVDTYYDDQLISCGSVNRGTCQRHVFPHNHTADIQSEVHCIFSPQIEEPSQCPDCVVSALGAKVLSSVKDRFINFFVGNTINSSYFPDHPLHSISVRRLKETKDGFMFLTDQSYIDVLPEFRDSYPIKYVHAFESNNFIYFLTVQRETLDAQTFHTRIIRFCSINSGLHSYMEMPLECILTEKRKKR
T1 sequence (P08581 308-1390 limits assumed): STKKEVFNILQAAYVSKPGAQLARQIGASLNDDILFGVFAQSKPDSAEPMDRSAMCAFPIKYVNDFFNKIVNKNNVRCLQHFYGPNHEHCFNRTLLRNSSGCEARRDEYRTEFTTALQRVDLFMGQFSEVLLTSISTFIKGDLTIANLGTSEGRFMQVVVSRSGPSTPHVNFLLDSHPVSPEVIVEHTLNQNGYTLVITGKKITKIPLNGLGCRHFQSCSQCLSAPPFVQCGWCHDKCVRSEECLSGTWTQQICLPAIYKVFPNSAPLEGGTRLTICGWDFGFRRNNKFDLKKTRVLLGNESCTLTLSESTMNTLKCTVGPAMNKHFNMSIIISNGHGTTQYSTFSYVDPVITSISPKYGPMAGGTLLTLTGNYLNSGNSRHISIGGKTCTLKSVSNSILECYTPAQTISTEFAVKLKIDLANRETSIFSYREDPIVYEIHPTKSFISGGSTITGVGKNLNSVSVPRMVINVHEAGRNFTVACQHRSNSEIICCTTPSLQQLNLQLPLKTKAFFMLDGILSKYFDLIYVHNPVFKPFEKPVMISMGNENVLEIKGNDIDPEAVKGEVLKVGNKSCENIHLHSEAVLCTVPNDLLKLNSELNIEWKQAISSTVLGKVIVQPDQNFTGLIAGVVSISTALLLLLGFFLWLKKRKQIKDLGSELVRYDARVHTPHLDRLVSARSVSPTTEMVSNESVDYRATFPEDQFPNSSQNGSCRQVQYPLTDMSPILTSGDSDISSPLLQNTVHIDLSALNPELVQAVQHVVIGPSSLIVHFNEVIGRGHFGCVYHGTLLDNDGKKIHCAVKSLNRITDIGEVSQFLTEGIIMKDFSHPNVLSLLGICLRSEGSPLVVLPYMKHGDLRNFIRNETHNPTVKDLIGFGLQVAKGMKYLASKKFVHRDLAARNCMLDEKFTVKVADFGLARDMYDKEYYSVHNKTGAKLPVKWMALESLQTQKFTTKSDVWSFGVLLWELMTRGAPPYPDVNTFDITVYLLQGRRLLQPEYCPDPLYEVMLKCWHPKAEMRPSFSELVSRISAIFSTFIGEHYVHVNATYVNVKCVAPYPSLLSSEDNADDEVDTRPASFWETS
Experimental: Inhibition of binding of [^125I]HGF(11-83)-NH2 (73 aa) to c-Met-expressing HuCCT-1 cells (human-origin cholangiocarcinoma cells) by human recombinant HGF (hrHGF) was determined by the binding assay.
Specifically, a suspension of HuCCT-1 cells (100 μL, (1.5×10^5 cells)) prepared for a binding inhibition test was placed in an Eppendorf tube whose inner surface had been coated with bovine serum albumin (BSA), and a solution of hrHGF (PEPTIDE INSTITUTE, INC.) (50 μL, final concentration: 379 nM) was added to the tube. A negative control was prepared by adding a binding buffer (0.2% BSA, 20 mM HEPES Hanks' solution, pH 7.0) (50 μL) instead of the rhHGF solution. To the samples, 0.758 nM [^125I]HGF(11-83)-NH2 (73 aa) solution (50 μL) (final concentration: 0.190 nM, ratio by amount to hrHGF: 1:2,000) was added. Each Eppendorf tube containing HuCCT-1 cells was stirred and incubated at room temperature for one hour, followed by centrifuged at 4° C. (3,000 rpm, 3 min) to precipitate the cells. The supernatant was removed by means of an aspirator. The cells were stirred with an ice-cooled binding buffer (500 μL), and the mixture was centrifuged (3,000 rpm, 3 min). The procedure was repeated thrice. The radioactivity of the Eppendorf tube containing HuCCT-1 cells was measured by means of a gamma counter. The average and the standard deviation of the radioactivity (cpm) were calculated for the samples to which the hrHGF solution had been added (hrHGF(+)) and for the samples to which the binding buffer had been added (hrHGF(−)). The difference between the averages was assessed through the Student's t-test.

[5] = tested on: c-Met-expressed McA-RH7777 cells (rat-origin liver cancer cells) tumor; assay: Accumulation in c-Met expressing tumor of implanted mice, autoradiography; format: in vivo, nude mice (BALB/c nu/nu); settings: compared with anti-c-Met antibody (SP-260) immunohistochemical staining of serial sections
Experimental: c-Met-specific accumulation of [^125I]HGF(11-83)-NH2 (73 aa) in a tumor was observed by autoradiography and immunohistostaining in mice subcutaneously implanted c-Met expressing cancer cells.
3. Observation of c-Met-Specific Accumulation of [^125I]HGF(11-83)-NH2 (73 aa) in a Tumor of Mice Subcutaneously Implanted c-Met Expressing Cancer Cells by Autoradiography and Immunohistostaining
A suspension of c-Met-expressed McA-RH7777 cells (rat-origin liver cancer cells) (200 μL, 2.0×10^6 cells) was subcutaneously injected to a right hindlimb of 6-week-old nude mice (BALB/c nu/nu: Japan SLC, Inc.). On day 9 (tumor volume: […] (McA-RH7777 cells)), the aforementioned labeled HGF-fragment (370 kBq/100 μL) was intravenously administered to each mouse. The tumor was isolated with muscles surrounding the tumor 15 minutes after administration, and frozen sections were prepared. Each frozen section was affixed to an imaging plate (Fuji Photo Film Co., Ltd) for seven days, and a [^125I]HGF(11-83)-NH2 (73 aa) accumulation image was observed by means of a bio-imaging analyzer BAS-1800 (Fuji Photo Film Co., Ltd) (FIG. 5). […] Serial frozen sections were subjected to hematoxylin-eosin (HE) staining (FIG. 6) and immunohistochemical staining with anti-c-Met antibody (SP-260) (FIG. 7).

| Molecule | NaCl concentration at elution from heparin column [1] | Accumulation at the infarct border zone (autoradiography) [2] | Accumulation at the infarct border zone (pinhole-SPECT) [3] | Radioactivity bound to HuCCT1 cells, hrHGF(+) samples ([4]; 0.190 nM labeled peptide with 379 nM hrHGF, room temperature, one hour, mean±SD) | Radioactivity bound to HuCCT1 cells, hrHGF(−) samples ([4]; 0.190 nM labeled peptide, room temperature, one hour, mean±SD) | Reduction of binding to the cells by addition of hrHGF ([4]; hrHGF 379 nM, 2,000-fold mole concentration, P=0.040) | Portion of the sample with strong heparin-binding activity ([1]; from the peak area ratios) | Area ratio of the heparin-binding peak ([1]; peak at 20.3 min, other peaks are free 125I and decomposed or denatured peptide) | Specificity of accumulation in tumor [5] |
| --- | --- | --- | --- | --- | --- | --- | --- | --- | --- |
| hrHGF: human recombinant HGF (PEPTIDE INSTITUTE, INC.), positive control with high heparin-binding activity [reference compound] | about 1.5 M |  |  |  |  |  |  |  |  |
| [99Tc].[C-]#[N+]CC(C)(C)OC.[C-]#[N+]CC(C)(C)OC.[C-]#[N+]CC(C)(C)OC.[C-]#[N+]CC(C)(C)OC.[C-]#[N+]CC(C)(C)OC.[C-]#[N+]CC(C)(C)OC [^99mTc-MIBI] |  | reduced accumulation | reduced accumulation |  |  |  |  |  |  |
| [^125I]HGF(11-83)-NH2 (73 aa): labeled product prepared through directly introducing 125I into HGF(11-83)-NH2 (73 aa) (peptide) peptide: FKKSAKTTLIKIDPALKIKTKKVNTADQCANRCTRNKGLPFTCKAFVFDKARKQCLWFPFNSMSSGVKKEFGH | about 1.3 M |  |  | 20916.9±1574.2 cpm | 26136.2±2580.8 cpm | 20% | about 80% | 78.1% | c-Met-specific |
